Experimental findings from paper PMC9719739 are described below.

The target of the assay is CaV1.2 C-terminal domain, residues 1520-1669 (two channel EF-hand motifs, pre-IQ and IQ-motif) (rabbit) (UniProt P15381). Kind of assay: SEC.
Sequence of UniProt P15381 (P15381 1520-1669): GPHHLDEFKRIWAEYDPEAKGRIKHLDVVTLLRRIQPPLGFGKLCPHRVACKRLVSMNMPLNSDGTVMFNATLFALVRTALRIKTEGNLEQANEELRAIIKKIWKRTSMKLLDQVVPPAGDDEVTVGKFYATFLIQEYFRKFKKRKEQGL

On to “Calmodulin (from UniProt P0DP23 1-149) (natural protein)”, for which the stoichiometry N (CaM per CT(1520-1669) (4:4)) turned out to be 1.
